Data on 1 molecule can be found in paper doi:10.1101/732289 (bioRxiv, 2020).

The test deals with human KIX domain of CBP with saturating DUX4 9aaTAD peptide (human, UniProt Q92793;Q9UBX2). Nature of the test: MST.
human KIX domain of CBP with saturating DUX4 9aaTAD peptide, sequence (Q92793 587-673, one chain of several): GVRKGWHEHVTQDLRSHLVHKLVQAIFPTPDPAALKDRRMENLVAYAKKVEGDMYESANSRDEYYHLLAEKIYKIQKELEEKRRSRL

In general, Kd refers to the free concentration of one partner at which half of the binding sites on the other are occupied at equilibrium, for simple one-to-one binding. Low values mean tighter binding, high ones weaker binding. EEEYRALLEE [DUX4 KBM peptide (E414-E423)] displayed a Kd of about 1.1 µM.
